Patent US20090111753A1, “Nogo-A Polypeptide Fragments, Variant Nogo Receptor-1 Polypeptides, and Uses Thereof” (Yale University, priority 2004, published 2009)

T1: AP-fused Amino-Nogo fragment A (a.a. 181-864) (human, UniProt Q9NQC3 181-864)
T1 construct: AP put first by the name; also called AmNg A; AP-AmNgA; not shown: alkaline phosphatase (AP), vector pcAP6
T1 sequence: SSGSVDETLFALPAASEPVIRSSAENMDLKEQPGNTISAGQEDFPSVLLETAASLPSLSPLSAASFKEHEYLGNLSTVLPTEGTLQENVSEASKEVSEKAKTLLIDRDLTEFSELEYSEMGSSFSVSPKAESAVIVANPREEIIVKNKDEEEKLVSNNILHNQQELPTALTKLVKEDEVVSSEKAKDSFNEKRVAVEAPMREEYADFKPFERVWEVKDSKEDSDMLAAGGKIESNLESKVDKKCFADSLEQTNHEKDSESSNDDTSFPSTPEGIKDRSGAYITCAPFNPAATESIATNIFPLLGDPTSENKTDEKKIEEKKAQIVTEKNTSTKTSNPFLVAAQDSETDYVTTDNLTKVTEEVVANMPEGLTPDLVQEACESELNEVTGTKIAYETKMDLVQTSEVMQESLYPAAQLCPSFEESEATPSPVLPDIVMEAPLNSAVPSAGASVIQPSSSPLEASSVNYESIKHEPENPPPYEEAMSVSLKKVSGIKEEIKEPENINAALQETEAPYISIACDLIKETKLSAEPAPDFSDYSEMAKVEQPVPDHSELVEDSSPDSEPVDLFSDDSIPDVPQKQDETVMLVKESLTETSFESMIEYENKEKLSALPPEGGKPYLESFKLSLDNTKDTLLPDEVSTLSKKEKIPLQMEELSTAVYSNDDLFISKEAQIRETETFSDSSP

T2: mouse NgR3 (Mus musculus, UniProt Q8K0S5)
T2 construct: expressed in transfected cells; host or cells: COS-7
T2 sequence (Q8K0S5 25-424): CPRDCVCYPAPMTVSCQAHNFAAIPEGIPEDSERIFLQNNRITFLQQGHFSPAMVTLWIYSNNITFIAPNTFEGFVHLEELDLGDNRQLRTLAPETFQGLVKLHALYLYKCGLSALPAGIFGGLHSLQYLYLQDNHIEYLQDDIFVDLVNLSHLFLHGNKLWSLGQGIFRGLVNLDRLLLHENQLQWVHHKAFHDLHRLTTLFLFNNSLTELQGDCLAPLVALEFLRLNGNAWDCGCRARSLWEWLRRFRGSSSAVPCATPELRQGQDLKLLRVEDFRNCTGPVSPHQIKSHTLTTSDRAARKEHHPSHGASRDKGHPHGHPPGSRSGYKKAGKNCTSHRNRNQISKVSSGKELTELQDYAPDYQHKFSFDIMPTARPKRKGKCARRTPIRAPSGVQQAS

T3: human NgR2 (Homo sapiens, UniProt Q86UN3)
T3 construct: expressed in transfected cells; host or cells: COS-7
T3 sequence (Q86UN3 47-390): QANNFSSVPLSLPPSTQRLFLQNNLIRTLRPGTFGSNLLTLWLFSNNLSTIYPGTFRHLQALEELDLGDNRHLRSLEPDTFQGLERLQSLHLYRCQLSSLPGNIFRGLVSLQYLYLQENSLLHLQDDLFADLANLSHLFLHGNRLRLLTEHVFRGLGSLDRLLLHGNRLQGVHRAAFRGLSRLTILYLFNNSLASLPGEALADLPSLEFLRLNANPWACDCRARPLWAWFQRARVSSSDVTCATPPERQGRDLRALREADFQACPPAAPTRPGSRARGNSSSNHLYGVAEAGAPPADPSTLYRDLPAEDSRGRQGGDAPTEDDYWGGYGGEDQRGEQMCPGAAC

B1: mouse NgR3 expressed on COS-7 cells (receptor, UniProt Q8K0S5 25-424, looked up)
chain: T2 sequence (Q8K0S5 25-424)
notes: whole, on cells; tagged (anti-Myc or anti-His detection); tag not specified
B2: AP-fused Amino-Nogo fragment B (a.a. 622-1018) (ligand)
chain: SAVPSAGASVIQPSSSPLEASSVNYESIKHEPENPPPYEEAMSVSLKKVSGIKEEIKEPENINAALQETEAPYISIACDLIKETKLSAEPAPDFSDYSEMAKVEQPVPDHSELVEDSSPDSEPVDLFSDDSIPDVPQKQDETVMLVKESLTETSFESMIEYENKEKLSALPPEGGKPYLESFKLSLDNTKDTLLPDEVSTLSKKEKIPLQMEELSTAVYSNDDLFISKEAQIRETETFSDSSPIEIIDEFPTLISSKTDSFSKLAREYTDLEVSHKSEIANAPDGAGSLPCTELPHDLSLKNIQPKVEEKISFSDDFSKNGSATSKVLLLPPDVSALATQAEIESIVKPKVLVKEAEKKLPSDTEKEDRSPSAIFSAELSKTSVVDLLYWRDIKKTG
notes: also called AmNg B; AP-AmNgB; not shown: alkaline phosphatase (AP), vector pcAP6
B3: AP-Nogo-66: AP fusion protein of the Nogo-66 domain (protein)
chain: RIYKGVIQAIQKSDEGHPFRAYLESEVAISEELVQKYSNSALGHVNCTIKELRRLFLVDDLVDSLK
modifications: left off: large carriers
notes: AP fusion protein of the Nogo-66 domain

How the values were obtained:
[1] = target: T1, AP-fused Amino-Nogo fragment A (a.a. …); assay: AP fusion on COS-7 cells expressing mouse NgR3
Experimental: (§1) FIG. 3B. […] Conditioned media from transfected HEK293T cells containing 20 nM of indicated AP fusion protein were applied to COS-7 cells expressing mouse NgR1, human NgR2 or mouse NgR3 and bound AP was stained. Surface expression of NgR5 was detected using anti-Myc or anti-His antibodies. AP-AmNgA: AP fusion protein of Amino-Nogo fragment A. AP-AmNgB: AP fusion protein of Amino-Nogo fragment B.

[2] = target: B1; assay: AP fusion on COS-7 cells expressing mouse NgR3
Experimental: as §1

mouse NgR3 = target: T2, mouse NgR3; settings: expressed on the surface of COS-7 cells; Barton et al. 2003; cited from earlier work
human NgR2 = target: T3, human NgR2; settings: expressed on the surface of COS-7 cells; Barton et al. 2003; cited from earlier work

Molecule: B1
binding result [1]: no binding (tested: 20 nM)

Molecule: B2
binding result [2]: no binding (tested: 20 nM)

Molecule: B3
binding to NgR3 (mouse NgR3): do not bind | binding to NgR2 (human NgR2): do not bind
